Measured values reported in US20100143368A1 (Bristol-Myers Squibb, published 2010).
Residue numbers refer to the chain shown, from its start. Numbers in names are those of the source.

B1: recombinant human anti-CD22 monoclonal antibody CD22.1 (antibody, human IgG1, V domains shown)
VH: QVQLQQWGAGLLKPSETLSLTCAVYGRSFSSYYWSWIRQPPGKGLEWIGDINHSGSTNYNPSLKSRVTISVDTSKNQFSLKLSSVTAADTAVYYCAGTFYDILTGYYPLGYWGPGTLVTVSS
VL: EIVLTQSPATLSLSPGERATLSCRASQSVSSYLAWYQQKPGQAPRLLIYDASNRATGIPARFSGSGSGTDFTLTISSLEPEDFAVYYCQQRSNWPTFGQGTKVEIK
notes: also called 19A3 expressed in CHO cells (clone 8G9)
B2: anti-CD22 human monoclonal antibody 19A3 (antibody, IgG1, V domains shown)
VH: B1 VH
VL: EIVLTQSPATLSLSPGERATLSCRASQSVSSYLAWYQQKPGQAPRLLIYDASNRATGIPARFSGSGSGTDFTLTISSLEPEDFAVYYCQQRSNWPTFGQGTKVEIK
notes: Hybridoma-derived; also called parental antibody 19A3
B3: recombinant human anti-CD22 monoclonal antibody CD22.2 (antibody, human IgG1, V domains shown)
VH: B1 VH with N52Q
VL: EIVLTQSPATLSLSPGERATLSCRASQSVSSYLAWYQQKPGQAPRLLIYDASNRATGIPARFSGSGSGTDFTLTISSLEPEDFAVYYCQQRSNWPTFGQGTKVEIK
notes: Variant of 19A3 with N57Q, which removes the N-glycosylation site in VH CDR2; also called 19A3 VH N57Q variant (clone 17E11)
B4: anti-CD22 human monoclonal antibody 12C5 (antibody, IgG1, V domains shown)
VH: QVQLVQSGSELKKPGASVKVSCKASGYTFTSYAMNWVRQAPGQGLEWMGWINTNTGNPTYAQGFTGRFVFSLDTSVSTAYLQISSLKAEDTAVYYCARLFYYYFGMDVWGQGTTVTVSS
VL: QSALTQPASVSGSPGQSITISCTGTSSDVGSYNLVSWYQLHPGKAPKLMIYEVSKRPSGVSNRFSGSRSGNTASLTISGLQAEDEADYYCCSYANSSTLVFGGGTKLTVL
notes: Hybridoma-derived

Columns and labels:
[1] = molecular target: T1, full-length human CD22 expressed on the cell surface (human, UniProt P20273 20-847); test: flow cytometry (FACS Array) on CHO cells transfected with full-length CD22, goat anti-human IgG-PE
T1 construct: One molecule is used both for CHO transfectants with the full-length CD22 cDNA and for endogenous CD22 on Raji/Daudi cells; also called CHO-CD22; CHO cells transfected with full-length CD22
T1 sequence (looked up): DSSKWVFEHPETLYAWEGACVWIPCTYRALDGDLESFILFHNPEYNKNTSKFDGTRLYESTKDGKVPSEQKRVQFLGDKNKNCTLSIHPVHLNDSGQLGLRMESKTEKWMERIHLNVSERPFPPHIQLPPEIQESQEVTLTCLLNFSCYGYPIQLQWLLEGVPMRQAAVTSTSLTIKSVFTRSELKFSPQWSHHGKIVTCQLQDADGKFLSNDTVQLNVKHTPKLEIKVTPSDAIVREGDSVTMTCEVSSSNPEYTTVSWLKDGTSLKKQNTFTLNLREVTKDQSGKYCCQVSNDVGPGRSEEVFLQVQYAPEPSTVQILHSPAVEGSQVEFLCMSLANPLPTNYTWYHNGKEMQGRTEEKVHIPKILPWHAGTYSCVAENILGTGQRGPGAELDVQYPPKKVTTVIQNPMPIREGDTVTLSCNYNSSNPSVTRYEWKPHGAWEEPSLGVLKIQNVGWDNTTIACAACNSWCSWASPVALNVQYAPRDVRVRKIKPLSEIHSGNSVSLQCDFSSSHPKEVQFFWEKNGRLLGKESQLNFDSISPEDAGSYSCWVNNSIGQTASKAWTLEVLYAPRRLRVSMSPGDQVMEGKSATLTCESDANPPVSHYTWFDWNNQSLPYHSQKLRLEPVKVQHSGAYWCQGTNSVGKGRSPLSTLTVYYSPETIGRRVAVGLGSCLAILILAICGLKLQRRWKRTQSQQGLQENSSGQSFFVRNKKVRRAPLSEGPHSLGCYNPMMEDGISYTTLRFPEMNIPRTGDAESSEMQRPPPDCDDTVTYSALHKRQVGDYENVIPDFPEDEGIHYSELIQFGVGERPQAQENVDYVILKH

[2] = molecular target: T2, recombinant human CD22 extracellular domain with C-terminal hexahistidine tag (human, UniProt P20273 20-687); test: SPR (BIAcore 3000); CD22 ECD-His captured by anti-His mAb on CM5 chip, antibody injected at 20 µg/mL
T2 construct: The whole entry is named here; also called CD22 ECD; CD22β extracellular domain
T2 sequence: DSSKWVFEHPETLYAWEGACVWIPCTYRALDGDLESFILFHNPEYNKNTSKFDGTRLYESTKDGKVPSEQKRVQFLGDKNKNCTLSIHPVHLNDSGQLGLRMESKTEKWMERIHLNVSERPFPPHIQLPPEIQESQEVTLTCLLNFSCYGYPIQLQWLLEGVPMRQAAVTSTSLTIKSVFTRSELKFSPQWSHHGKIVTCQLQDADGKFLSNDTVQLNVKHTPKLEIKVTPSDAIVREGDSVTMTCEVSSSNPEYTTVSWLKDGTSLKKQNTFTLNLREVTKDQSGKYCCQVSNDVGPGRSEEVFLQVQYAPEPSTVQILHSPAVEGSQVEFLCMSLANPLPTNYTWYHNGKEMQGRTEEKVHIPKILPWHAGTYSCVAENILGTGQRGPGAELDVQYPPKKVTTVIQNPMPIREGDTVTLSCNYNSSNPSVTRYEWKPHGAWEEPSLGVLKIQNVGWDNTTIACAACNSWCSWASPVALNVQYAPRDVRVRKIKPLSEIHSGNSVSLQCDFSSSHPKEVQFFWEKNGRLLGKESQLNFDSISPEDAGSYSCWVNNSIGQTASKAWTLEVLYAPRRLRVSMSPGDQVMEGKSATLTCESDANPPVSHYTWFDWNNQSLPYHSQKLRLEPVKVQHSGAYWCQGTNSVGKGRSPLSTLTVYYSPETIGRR
Experimental: For determination of antibody affinity (KD), experiments were performed in which the CD22 antigen was captured on a BIAcore chip using an antibody to the His tag present on the antigen. Anti-His monoclonal antibody ab15149 (Abcam, Stock conc.0.5 mg/mL) was coated on a CM5 chip at high density (3500RUs), as recommended by the manufacturer. CD22 ECD (6.6 μg/mL) was captured on this surface for 60 sec at a flow-rate of 6 μL/min. A single concentration (20 μg/mL) of anti-CD22 purified mAbs was injected over the captured antigen with an association time of 5 minutes and a dissociation time of 8 minutes, at a flow rate of […]. The chip surface was regenerated after each cycle with 10 μL of 25 mM NaOH. Isotype controls were run on the chip and the data used to subtract non-specific binding. All experiments were carried out on a BIAcore 3000 surface plasmon resonance instrument, using BIAcore Control software v 3.2. Data analysis was carried out using BiaEvaluation v. 3.2 software.
Fourteen of the selected anti-CD22 antibodies were tested in the affinity experiment.

Binder | EC50 (read off the curve) [1] [µg/mL] | Kd [2] [nM]
B1 | ~0.3 | –
B2 | – | 0.15
B3 | ~0.3 | –
B4 | – | 0.23
